For one molecule, Kd results are on record in patent US20170247418A1.

What is called Kd is the concentration at which binding is half-saturated. High values mean lower affinity, low ones higher affinity.

The target in assay [1] is biotinylated eboIZN39IQ.
Assay [2] deals with biotinylated eboIZN39IQ. The assay is described as follows: SPR (ProteOn XPR36), eboC24 flowed over biotin-eboIZN39IQ, pH 5.8.

Like-named read-outs stand apart in the source and are kept apart here.

Consider IEPHDWTKNITDKIDQIIHDFVDK (modifications not checked) [eboC24], for which the dissociation constant Kd with biotinylated eboIZN39IQ [1] came out at 310 nM; in the assay with biotinylated eboIZN39IQ [2], 300 nM.
